Measured values as given in patent US20190185546A1.

Key:
[1] = biological target: HSV-2 (Herpes Simplex Virus type 2; antigen recognised not identified) (Herpes simplex virus 2); test: cell-based or functional assay
[2] = biological target: HSV-1 (Herpes Simplex Virus type 1; antigen recognised not identified) (Herpes simplex virus 1); test: cell-based or functional assay

IC50 (neutralization, IIF infection foci count, InCellAnalyzer) [1]: 0.2 µg/mL
IC50 (neutralization, IIF infection foci count, InCellAnalyzer) [2]: 0.7 µg/mL
B1: Fab Ex2 (IgG1 Fab format) (Fab, V domains shown)
VH: LESGGGVVQPGRSLRLSCAASGFTFTTFAMHWVRQAPGKGLEWLAFISYDGSNKYYADSVKGRFTISRDNSKNTLYLQMNSLRAEDTSIYYCAREVWNYADYWGQGALVTVSS
VL: ELTQSPGTLSSSPGHRATLSCKASAPLGSNHMAWYQQKPGQAPRLLIYGASTRATGVPARFTGSGSGTDFTLTISSLQPEDFATYYCQQANSFPRTFGQGTKVEIK
